Assay results from patent US20110300579A1 (UNIVERSITY OF SOUTHERN CALIFORNIA, published 2011).

Key:
[1] = biological target: purified soluble αvβ3 integrin (Millipore) (UniProt P06756 31-992; P05106 27-718)
[2] = biological target: soluble recombinant α5β1 integrin (R&D Systems) (UniProt P08648 42-995; P05556 21-728)
[3] = biological target: purified soluble αvβ5 integrin (Millipore) (UniProt P06756 31-992; P18084 24-719)
Chain of purified soluble αvβ5 integrin (Millipore) (P06756 31-992, chain 1 of 2): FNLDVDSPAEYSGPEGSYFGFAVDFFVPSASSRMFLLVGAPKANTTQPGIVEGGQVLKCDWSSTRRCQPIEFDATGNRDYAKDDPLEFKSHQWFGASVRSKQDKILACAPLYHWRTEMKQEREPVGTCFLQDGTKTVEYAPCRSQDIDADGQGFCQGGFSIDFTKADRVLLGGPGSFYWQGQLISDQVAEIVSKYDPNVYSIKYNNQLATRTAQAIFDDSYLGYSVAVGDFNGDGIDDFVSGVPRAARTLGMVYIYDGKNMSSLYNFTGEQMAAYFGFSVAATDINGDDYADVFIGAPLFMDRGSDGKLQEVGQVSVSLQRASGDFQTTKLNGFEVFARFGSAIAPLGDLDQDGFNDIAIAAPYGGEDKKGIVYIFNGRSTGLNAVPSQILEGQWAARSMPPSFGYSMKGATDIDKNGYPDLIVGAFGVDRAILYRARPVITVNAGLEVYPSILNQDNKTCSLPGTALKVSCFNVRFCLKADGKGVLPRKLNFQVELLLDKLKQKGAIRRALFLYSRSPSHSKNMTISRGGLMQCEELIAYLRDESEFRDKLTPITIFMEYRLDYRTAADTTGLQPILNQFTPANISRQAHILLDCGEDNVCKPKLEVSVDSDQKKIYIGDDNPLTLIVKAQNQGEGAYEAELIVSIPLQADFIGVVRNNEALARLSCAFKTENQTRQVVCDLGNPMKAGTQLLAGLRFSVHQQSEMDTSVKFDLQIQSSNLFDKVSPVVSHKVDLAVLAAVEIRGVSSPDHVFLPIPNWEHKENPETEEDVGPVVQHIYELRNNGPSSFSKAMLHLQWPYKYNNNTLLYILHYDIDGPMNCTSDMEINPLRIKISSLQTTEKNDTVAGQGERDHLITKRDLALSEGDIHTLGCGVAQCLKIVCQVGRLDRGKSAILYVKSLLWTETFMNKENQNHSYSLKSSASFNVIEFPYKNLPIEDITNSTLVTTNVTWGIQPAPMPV
Chain of purified soluble αvβ5 integrin (Millipore) (P18084 24-719, chain 2 of 2): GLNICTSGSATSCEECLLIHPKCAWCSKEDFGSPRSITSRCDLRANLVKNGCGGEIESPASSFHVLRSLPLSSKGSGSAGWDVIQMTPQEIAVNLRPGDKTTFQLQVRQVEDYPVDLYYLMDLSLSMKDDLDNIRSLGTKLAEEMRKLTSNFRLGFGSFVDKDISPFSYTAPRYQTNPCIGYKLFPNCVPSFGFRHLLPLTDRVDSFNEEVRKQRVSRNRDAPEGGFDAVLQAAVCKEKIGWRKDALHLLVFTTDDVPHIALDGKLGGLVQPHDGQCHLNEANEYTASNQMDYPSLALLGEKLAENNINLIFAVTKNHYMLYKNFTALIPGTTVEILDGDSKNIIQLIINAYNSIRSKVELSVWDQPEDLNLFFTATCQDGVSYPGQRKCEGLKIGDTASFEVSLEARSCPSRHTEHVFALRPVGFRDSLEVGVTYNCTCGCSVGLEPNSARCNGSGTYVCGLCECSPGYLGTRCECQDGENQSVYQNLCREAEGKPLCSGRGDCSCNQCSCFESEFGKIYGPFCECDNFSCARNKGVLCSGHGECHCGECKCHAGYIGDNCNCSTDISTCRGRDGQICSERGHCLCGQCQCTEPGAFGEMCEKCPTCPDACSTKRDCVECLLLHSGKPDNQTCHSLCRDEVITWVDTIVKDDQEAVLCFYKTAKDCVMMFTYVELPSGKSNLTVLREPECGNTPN

Chain of soluble recombinant α5β1 integrin (R&D Systems) (P08648 42-995, chain 1 of 2): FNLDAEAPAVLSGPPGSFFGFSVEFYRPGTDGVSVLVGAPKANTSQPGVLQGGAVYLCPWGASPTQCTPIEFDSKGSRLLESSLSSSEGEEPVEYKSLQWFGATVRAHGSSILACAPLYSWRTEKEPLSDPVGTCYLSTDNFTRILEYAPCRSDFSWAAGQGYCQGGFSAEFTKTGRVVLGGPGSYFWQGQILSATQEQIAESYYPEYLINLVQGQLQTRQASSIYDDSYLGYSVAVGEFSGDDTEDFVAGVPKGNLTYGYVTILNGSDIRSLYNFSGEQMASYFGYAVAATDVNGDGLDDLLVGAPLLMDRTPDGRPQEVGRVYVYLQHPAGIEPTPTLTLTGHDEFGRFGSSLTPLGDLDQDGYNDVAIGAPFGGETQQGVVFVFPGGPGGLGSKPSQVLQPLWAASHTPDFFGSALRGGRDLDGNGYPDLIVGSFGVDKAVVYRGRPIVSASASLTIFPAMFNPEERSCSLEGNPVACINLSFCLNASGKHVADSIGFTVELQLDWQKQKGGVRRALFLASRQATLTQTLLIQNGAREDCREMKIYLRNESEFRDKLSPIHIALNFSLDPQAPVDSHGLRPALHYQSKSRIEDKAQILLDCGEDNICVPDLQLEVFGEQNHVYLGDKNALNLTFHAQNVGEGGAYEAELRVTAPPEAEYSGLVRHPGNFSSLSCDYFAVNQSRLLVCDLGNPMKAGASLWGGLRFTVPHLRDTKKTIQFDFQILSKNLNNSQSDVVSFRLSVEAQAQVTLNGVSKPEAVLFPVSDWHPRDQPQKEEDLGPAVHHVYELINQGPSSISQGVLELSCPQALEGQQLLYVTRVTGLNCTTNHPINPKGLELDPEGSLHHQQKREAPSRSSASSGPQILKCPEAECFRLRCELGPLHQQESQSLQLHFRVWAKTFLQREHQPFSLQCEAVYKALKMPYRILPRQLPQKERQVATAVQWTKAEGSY
Chain of soluble recombinant α5β1 integrin (R&D Systems) (P05556 21-728, chain 2 of 2): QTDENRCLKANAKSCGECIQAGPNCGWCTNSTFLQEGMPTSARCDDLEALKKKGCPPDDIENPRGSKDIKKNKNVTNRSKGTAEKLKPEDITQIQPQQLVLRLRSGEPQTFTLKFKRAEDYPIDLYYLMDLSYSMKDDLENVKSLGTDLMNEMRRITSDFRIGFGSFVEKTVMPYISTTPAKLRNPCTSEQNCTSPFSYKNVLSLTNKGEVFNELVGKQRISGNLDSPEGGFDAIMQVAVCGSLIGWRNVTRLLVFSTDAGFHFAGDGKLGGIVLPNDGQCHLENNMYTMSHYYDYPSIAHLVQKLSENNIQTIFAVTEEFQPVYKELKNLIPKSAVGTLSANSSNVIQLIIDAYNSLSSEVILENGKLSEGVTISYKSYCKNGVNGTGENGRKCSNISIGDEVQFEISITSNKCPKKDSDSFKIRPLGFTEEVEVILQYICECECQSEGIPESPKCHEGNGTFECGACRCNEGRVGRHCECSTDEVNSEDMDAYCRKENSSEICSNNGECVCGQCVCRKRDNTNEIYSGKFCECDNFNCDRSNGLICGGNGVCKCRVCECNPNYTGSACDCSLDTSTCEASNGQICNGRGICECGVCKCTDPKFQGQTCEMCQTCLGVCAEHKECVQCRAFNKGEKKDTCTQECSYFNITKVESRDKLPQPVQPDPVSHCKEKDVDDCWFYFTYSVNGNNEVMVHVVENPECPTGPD
Chain of purified soluble αvβ3 integrin (Millipore) (P06756 31-992, chain 1 of 2): as the sequence (P06756 31-992, chain 1 of 2) above
Chain of purified soluble αvβ3 integrin (Millipore) (P05106 27-718, chain 2 of 2): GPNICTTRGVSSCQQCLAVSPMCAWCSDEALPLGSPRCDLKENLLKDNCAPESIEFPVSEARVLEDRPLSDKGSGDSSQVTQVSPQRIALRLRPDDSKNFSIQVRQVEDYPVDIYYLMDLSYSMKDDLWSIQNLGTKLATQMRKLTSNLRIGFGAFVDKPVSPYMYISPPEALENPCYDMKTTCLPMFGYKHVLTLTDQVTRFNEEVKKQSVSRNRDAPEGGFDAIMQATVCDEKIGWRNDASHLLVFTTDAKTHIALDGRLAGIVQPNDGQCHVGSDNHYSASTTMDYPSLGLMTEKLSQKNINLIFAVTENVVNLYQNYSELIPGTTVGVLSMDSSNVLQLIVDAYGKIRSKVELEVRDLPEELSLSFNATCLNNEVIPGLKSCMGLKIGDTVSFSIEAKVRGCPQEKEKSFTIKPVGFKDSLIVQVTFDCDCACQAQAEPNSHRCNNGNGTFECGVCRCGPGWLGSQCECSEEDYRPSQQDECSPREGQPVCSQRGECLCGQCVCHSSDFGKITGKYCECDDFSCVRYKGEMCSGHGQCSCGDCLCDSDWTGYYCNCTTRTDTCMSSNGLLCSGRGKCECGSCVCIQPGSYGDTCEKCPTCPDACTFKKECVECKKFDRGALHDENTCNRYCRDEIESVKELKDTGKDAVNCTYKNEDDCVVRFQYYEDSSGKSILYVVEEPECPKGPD

B1: Contortrostatin (CN), native, purified from Agkistrodon contortrix contortrix venom (ligand)
chain: DAPANPCCDAATCKLTTGSQCADGLCCDQCKFMKEGTVCRRARGDDLDDYCNGISAGCPRNPFH
[1]
  Kd: 6.6 nM
[2]
  Kd: 191 nM
[3]
  Kd: 19.5 nM
